In general, Ki refers to a measure of affinity in units of concentration, obtained from inhibition or displacement. Low readings indicate tighter binding, high ones weaker binding.

Assay [1] concerns the target BCL2 (human (endogenous in OCI-LY8)) (UniProt P10415). Description: co-IP.
Assay [2] has as its target GST-BCL2 (UniProt P10415). Description: fluorescence polarisation.

Take “poly(ADP) ribose polymerase 1 (PARP1) (from UniProt P09874 1-1014) (enzyme)”: the percent of PARP1 displaced from BCL2 by 100 nM ABT-737 in assay [1] is 65%. The substance “purified PARP1 (from UniProt P09874 1-1014) (enzyme)” registered a Ki in assay [2] of 77 nM.
